Our source for the binding signal values is patent publication US20220064648, “NOVEL X-[…] FOR THE USE IN DETECTION OF SNAP25” (Galderma Holding S.A., published 2022).

For data set [1], the target named is T1, SNAP25 full length (FLAG and MYC tagged) (Homo sapiens, UniProt P60880 SEQ:12-217). Description: ELONA. The following applies: tags: FLAG and MYC. The text has this:
(§1) The data in Table 2 was collected by running direct ELISA assays on the 96 X-aptamers, elucidating their ability to bind SNAP25, SNAP25 fragments (PEP1, PEP2, PEP3, and PEP4), and a negative control. The X-aptamers were biotinylated and immobilized onto streptavidin-coated plates and were utilized as detection molecules. Higher numbers represent strong binding. The negative control peptide is a random peptide to measure the amount of binding that occurs to a random amino acid sequence.

Data set [2] concerns the target T2, SNAP25 Peptide 3 (PEP3; only a fragment of it is a SNAP25 subsequence) (Homo sapiens, UniProt P60880 SEQ:1-33).
T2 chain: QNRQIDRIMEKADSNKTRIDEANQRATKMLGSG
Description: ELONA.
From the text: as §1

For data set [3], the target named is T1, SNAP25 full length (FLAG and MYC tagged). Description: ELONA; full-length SNAP25. The following applies: tags: FLAG and MYC.
From the text: as §1

T1 sequence (P60880 whole entry, the tested form may be a part): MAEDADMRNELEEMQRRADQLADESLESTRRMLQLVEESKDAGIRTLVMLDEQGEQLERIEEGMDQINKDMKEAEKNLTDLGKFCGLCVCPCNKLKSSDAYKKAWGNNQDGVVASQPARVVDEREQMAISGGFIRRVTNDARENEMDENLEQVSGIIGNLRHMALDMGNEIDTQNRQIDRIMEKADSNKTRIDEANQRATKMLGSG

B1: SNAP.08 (ssDNA)
DNA: TTTTTAACACGACTGAAGTTCGCCAGGCGAACATCGTGGTGGTCGTGCCATG
modifications: W indole, X amine, Y phenol modified dU [14,19,20,34,40,43,46]
As for B1, the binding signal in data set [1] came out at 35 ELISA signal.

B2: PEP 3.09 (ssDNA)
DNA: TTTTTAAGCCCACTGCACTGTGTACATCGAACTGCACCAACGTGGGCCCATG
modifications: W indole, X amine, Y phenol modified dU [14X,19Y,23W,27X]
Take B2: the binding signal in data set [2] stood at 196 ELISA signal; in data set [3] it was 168 ELISA signal.

B3: PEP 4.11 (ssDNA)
DNA: TTTTTAAGCCCACCCGAGTTCGTCCAGCGAACCACGCGCGTGTCGTGCCATG
modifications: W indole, X amine, Y phenol modified dU [19,20,23,43,46]
In data set [3], B3 showed a binding signal of 0 ELISA signal.

B4: PEP 4.10 (ssDNA)
DNA: TTTTTAAGCCCACAAGACTGTGCGTCGCACAGATTGGCATCGTCGTGCCATG
modifications: W indole, X amine, Y phenol modified dU [19,25,34,35,40,43,46]
In turn, B4 registered a binding signal in data set [3] of 4 ELISA signal.

B5: PEP 4.09 (ssDNA)
DNA: TTTTTAACACGACATATGTTCGACGGACACAGTGTGTGGCGGTCGTGCCATG
modifications: W indole, X amine, Y phenol modified dU [15,17,19,20,35,43,46]
In data set [3], B5 showed a binding signal of 0 ELISA signal.

B6: SNAP.07 (ssDNA)
DNA: TTTTTAACACGACCGGGCTGTGCACATCGAACACTGCGGTCGTCGTGCCATG
modifications: W indole, X amine, Y phenol modified dU [19,27,35,40,43,46]
B6: in data set [1], the binding signal is 38 ELISA signal.
